Data published in the supplement of paper PMC12042874.
± gives the uncertainty stated by the source.

Test: amyloid nucleation score (Sup35N fusion, yeast selection) (log enrichment); library NNK2; higher = more nucleation; inactive = no reads after selection
How it was run: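 Output and input plasmid inserts were sequenced by Illumina after psi-negative yeast carrying Sup35N fused to peptides of 20 random codons had been induced 24 hours with 100 μM copper sulfate and grown 7 days at 30°C on medium lacking adenine and uracil. The nucleation score is the DiMSum log enrichment of output over input reads, centred on the mode score of non-aggregating sequences. Sequences with under 100 input reads were excluded.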

| Substance | amyloid nucleation score |
| --- | --- |
| CVVVRSCI | -0.342 ± 1.1 |
| CWDCKLPHRPGVFMRNNHFK | -0.015 ± 0.45 |
| CWGNGGQKRLFVLFSFAY | 0.063 ± 1.1 |
| CWMFVVHIAIWGGVSLDGIV | 0.208 ± 1.1 |
| CWNACSLRLNDGAGDPGWRD | 0.36 ± 0.22 |
| CYAGFCN | inactive |
| CYMCWFNIILLQKFKRQGVL | 4.29 ± 0.063 |
| CYSVFSLY | -0.81 ± 1 |
| CYTNYIYVLAAMWTSEIRKV | inactive |
| DALLNFTRLSITNNVNIGP | 5.894 ± 0.046 |
| DANDSSWEGG | 0.669 ± 0.74 |
| DARFLPVVLRKKTDSICYVN | -0.177 ± 0.79 |
| DARKNVDRSPSSLSEKVLSL | 0.642 ± 0.34 |
| DCAWNFWFSLVYRLVISGHS | -0.38 ± 0.6 |
| DCDMVFFLGIFFKSSGGKGN | 2.57 ± 0.083 |
| DCFPLLLNRFRPEHYVRWHR | 0.887 ± 0.57 |
| DCLLCFFGSHSILVRPILKV | inactive |
| DCLLGNSSPAV | -0.594 ± 1.1 |
| DCLLSFVRVRSSPSVRY | 4.47 ± 0.056 |
| DCQMRDNASVNIIVRFQYVY | 5.08 ± 0.082 |
| DCRIVREHLPCPSFFRSFSR | 0.164 ± 1.1 |
| DCRVGSLSAGRQLSARAAGK | 0.633 ± 0.41 |

| Substance | amyloid nucleation score |
| --- | --- |
| DCSCFYFF | 2.96 ± 0.08 |
| DCSMVIMYFASGRSRALSNR | 4.48 ± 0.067 |
| DCVNGVLFDGSPHVYGFLEW | 0.419 ± 0.32 |
| DDIAVCWNCFVRLILMMWED | 1.57 ± 0.42 |
| DDIFIRKLFQYS | inactive |
| DDLSMRVVRLRNVTLYHYFG | 3.21 ± 0.088 |
| DDMTGDHRPSFRSMIMVGVI | 0.918 ± 0.67 |
| DDVMMILGNNTSYVLFNMPC | inactive |
| DDWEVRN | 0.231 ± 0.31 |
| DECAVPRSE | 0.7 ± 0.51 |
| DEEVSWRIG | 0.196 ± 0.46 |
| DEGKA | -0.507 ± 0.42 |
| DFCYFSFRPLHLRFQNTDWP | 0.007 ± 1.1 |
| DFFMTPGTLGIGTLSNISFY | inactive |
| DFMSSVFCQAVWVHAPRRVR | 0.6 ± 0.74 |
| DFNSCRLTVHLRYTSVPCRY | 0.233 ± 0.74 |
| DFNVSLSCHEKLMMVSFRWR | -0.373 ± 0.34 |
| DFSLGLWRVTDIDYVSNVSL | 0.151 ± 0.8 |
| DFTVSHI | inactive |
| DGDICLLRYFFLTMILELAI | -2.02 ± 0.78 |
| DGIRVLCLTALPFMWVH | inactive |
| DGNFHNFLLCNNEMFREMDC | 2.63 ± 0.13 |

| Substance | amyloid nucleation score |
| --- | --- |
| DGSERIPCLSNYHMLRLTNS | -0.001 ± 0.32 |
| DGYIVFSRNAVNIFSVYFTG | 6.212 ± 0.04 |
| DGYMMGALQNYCNCTRFVLN | inactive |
| DHAYYDTSCGIRTPFVMIVR | inactive |
| DHITVVAIKKEHLVEIIYVY | -0.904 ± 0.35 |
| DHVLSFDSIVVWYLRIGGEE | -0.656 ± 1.1 |
| DIDGWCTIYMDIVYMKTCPY | 0.262 ± 0.56 |
| DIDKGSTEGDVMEGKLVNNV | 0.171 ± 0.2 |
| DIHRPQRYISKYSSTREWVG | -0.224 ± 0.32 |
| DIKYCRSFCWLSTIFRTLGP | 0.249 ± 0.37 |
| DINKFVAVWCHYLSGKGLLP | -0.359 ± 0.26 |
| DISVLSLQYMS | -0.105 ± 0.8 |
| DIWMAINVGAYGVCEFCVSR | 5.88 ± 0.071 |
| DIYFGDQNDCLKR | -1.17 ± 0.64 |
| DKYITCVESWWPSILGGEKP | 1.87 ± 0.23 |
| DKYSWRKNGCGGWCVTTVVG | 0.573 ± 0.3 |
| DLAFNFASWLCRAKFNGSRC | 5.04 ± 0.09 |
| DLDIC | -0.2 ± 0.3 |
| DLGPLFDCCSVYGGAECCIE | -0.1 ± 0.49 |
| DLLHETML | -0.781 ± 1.1 |
| DLLRPSGMFFCYGQFYCLKC | -1.05 ± 0.39 |
| DLMDVEGLSGPPLRSMQVLK | 5.003 ± 0.05 |

| Substance | amyloid nucleation score |
| --- | --- |
| DLPYSSVIRKYMSKMWLHMN | 0.218 ± 0.36 |
| DLRLTSHIRSFIFAGVPVLF | -1.65 ± 0.49 |
| DLSLESLRSNEVEAVNMFVF | inactive |
| DLVNV | 1.8 ± 0.38 |
| DLYIS | 0.13 ± 0.8 |
| DMAKGVLRSLFGTA | -0.154 ± 0.36 |
| DMLPLMSAVPHSFSMLVWGE | -0.109 ± 0.36 |
| DMRLKGLTRVFTGDNRFSLL | -0.064 ± 0.54 |
| DMRTIGEHCW | 1.02 ± 0.52 |
| DMVDLCSKDMSRALFGPNMS | 5.39 ± 0.059 |
| DMVVMVYALLGPLQFECNK | 0.888 ± 0.15 |
| DNDCHCSWENISYLWGHLRG | inactive |
| DNELFPLYWNR | 0.309 ± 0.15 |
| DNGNTMDES | 0.232 ± 0.55 |
| DNLNRAKFDLELVESGFWVV | inactive |
| DNRKDSFMLHSFGTKVSGHK | 0.918 ± 0.37 |
| DNSAGDLYNSSVTGSPVMQL | -0.447 ± 0.22 |
| DNSFMSLYLVRIHFTYPVAA | 3.69 ± 0.082 |
| DNTELFKNDFKFKLYLSNKI | 1.72 ± 0.24 |
